Assay results reported in patent US20230248825.

Experiments:
Test in all cases: cell_activity
Conditions in all cases: primary human T cells; as pair; two GMCSF TALEN constructs used, value not split by construct
[1] = tested on: GMCSF_Tal_1 TALEN right monomer (artificial)
[2] = tested on: GMCSF_Tal_2 TALEN left monomer (artificial)
[3] = tested on: GMCSF_Tal_2 TALEN right monomer (artificial)
[4] = tested on: GMCSF_Tal_1 TALEN left monomer (artificial)

CACTGTGGCCTGCAGCA (double strand) [GMCSF_Tal_1 right half-site]
activity (% reduction in GMCSF secretion) [1]: 90

TCCTGAACCTGAGTAGA (double strand) [GMCSF_Tal_2 left half-site]
activity (% reduction in GMCSF secretion) [2]: 90

TGAGATGGTAAGTGAGA (double strand) [GMCSF_Tal_2 right half-site]
activity (% reduction in GMCSF secretion) [3]: 90

TGTGGCTGCAGAGCCTG (double strand) [GMCSF_Tal_1 left half-site]
activity (% reduction in GMCSF secretion) [4]: 90
